Assay results taken from patent US20200231681A1.
pKd: −log10 of the molar value.

Legend:
[1] = biological target: c-Met receptor on human tumor cells (MKN45, NCI-H820, HCC827) (human) (UniProt P08581); experiment: cell-based or functional assay
[2] = biological target: EGFR on HCC827 cells (EGFR E746-A750 deletion mutation) (human) (UniProt P00533); experiment: cell-based or functional assay
[3] = biological target: cynomolgus monkey EGFR ECD (SiNo. Biological, 90285-008B) (cynomolgus monkey); experiment: SPR (BIAcore), antibody captured by anti-human IgG Fc, antigen as analyte, 1:1 Langmuir
[4] = biological target: c-Met receptor on human tumor cells (MKN45, NCI-H820, HCC827) (human) (UniProt P08581); experiment: flow cytometry on MKN45 cells, 100 nM control antibody, anti-human kappa LC-FITC (column of OA-5D5)
[5] = biological target: c-Met receptor on human tumor cells (MKN45, NCI-H820, HCC827) (human) (UniProt P08581); experiment: flow cytometry on MKN45 cells, 100 nM control antibody, anti-human kappa LC-FITC (column of hu8C4)

Sequence of c-Met receptor on human tumor cells (MKN45, NCI-H820, HCC827) (human) (P08581 25-1390): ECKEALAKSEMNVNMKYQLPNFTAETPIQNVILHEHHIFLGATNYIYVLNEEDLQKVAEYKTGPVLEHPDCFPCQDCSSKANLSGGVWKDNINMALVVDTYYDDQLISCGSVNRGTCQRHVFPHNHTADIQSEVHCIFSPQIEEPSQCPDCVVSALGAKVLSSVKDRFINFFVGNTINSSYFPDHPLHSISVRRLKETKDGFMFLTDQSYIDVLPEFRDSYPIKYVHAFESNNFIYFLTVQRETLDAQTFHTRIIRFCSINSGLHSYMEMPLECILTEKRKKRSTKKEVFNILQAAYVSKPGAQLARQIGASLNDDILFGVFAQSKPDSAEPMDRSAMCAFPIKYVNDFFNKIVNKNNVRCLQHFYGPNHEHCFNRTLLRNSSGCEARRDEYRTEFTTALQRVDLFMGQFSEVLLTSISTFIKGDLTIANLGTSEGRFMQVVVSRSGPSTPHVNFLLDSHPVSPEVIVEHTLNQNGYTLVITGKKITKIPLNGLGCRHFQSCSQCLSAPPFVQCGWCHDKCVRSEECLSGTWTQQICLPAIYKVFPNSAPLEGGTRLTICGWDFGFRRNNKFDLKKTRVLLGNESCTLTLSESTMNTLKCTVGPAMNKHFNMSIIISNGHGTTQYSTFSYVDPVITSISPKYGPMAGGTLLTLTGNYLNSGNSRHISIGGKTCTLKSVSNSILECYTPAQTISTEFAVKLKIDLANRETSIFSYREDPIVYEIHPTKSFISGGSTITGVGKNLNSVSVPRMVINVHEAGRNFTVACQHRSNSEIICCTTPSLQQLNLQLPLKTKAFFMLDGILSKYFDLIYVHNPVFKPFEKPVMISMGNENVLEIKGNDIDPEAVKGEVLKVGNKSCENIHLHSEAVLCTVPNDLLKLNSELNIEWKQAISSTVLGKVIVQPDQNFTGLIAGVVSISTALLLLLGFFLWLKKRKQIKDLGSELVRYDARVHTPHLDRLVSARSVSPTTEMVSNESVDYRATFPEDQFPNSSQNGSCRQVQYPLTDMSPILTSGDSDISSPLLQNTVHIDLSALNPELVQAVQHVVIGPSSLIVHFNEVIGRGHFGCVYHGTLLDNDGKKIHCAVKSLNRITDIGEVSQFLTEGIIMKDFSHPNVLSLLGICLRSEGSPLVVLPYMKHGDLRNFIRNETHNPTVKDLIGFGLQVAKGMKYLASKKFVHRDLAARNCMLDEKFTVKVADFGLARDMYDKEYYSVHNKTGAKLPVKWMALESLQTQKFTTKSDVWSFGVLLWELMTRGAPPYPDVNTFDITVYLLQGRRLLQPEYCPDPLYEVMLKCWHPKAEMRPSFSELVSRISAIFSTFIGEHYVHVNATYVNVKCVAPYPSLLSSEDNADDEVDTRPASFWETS

| Substance | c-Met on the surface of HCC827 cells after 18 h with 100 nM antibody, Means (geo MFI); human IgG control 5653 [1] [geo MFI] | decrease of c-Met on the surface of HCC827 cells [1] [%] | further results |
| --- | --- | --- | --- |
| C-EM1 (EM1-MAb, Janssen; control c-Met/EGFR bispecific antibody) | 3660 | 40 | EGFR on the surface of HCC827 cells after 18 h with 100 nM antibody, Means (geo MFI); human IgG control 11494 [2]: 11500 geo MFI |
| C-LA480 (LA480, Lilly; control c-Met antibody) | 3270 | 40 | – |
| Vectibix (antibody) | – | – | pKd [3]: 9.68 |
| human IgG antibody (negative control) | – | – | FITC MFI [IgG control] (FITC geo-mean (MFI)) [4]: 127; FITC MFI [IgG control] (FITC geo-mean (MFI)) [5]: 127 |
